According to patent US20130143802A1:

What was measured:
[1] = biological target: interleukin 1 receptor (on human peripheral blood leukocytes RPMI 1788) (human (cells are stated to be human)) (UniProt P14778); test: cell-based or functional assay
alpha-amylase = test: cell-based or functional assay

Chain of UniProt P14778 (P14778 18-569): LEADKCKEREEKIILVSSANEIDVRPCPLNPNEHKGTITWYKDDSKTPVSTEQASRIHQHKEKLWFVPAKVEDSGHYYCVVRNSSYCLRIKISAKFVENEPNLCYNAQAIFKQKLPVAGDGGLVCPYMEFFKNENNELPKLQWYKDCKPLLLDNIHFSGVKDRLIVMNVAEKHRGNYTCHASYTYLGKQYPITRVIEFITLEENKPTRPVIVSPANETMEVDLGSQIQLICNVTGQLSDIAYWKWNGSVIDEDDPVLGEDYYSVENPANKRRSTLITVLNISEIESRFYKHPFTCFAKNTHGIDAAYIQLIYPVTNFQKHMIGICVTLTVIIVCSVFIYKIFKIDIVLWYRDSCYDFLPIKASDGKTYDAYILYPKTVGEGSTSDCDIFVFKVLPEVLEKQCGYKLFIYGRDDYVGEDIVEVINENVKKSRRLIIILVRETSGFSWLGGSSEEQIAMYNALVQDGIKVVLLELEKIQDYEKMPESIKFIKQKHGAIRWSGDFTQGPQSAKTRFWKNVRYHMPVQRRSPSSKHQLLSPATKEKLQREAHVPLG

Substance “ELP/IL-1Ra fusion protein (ELP1 [V5A2G3-90] - … - interleukin 1 receptor antagonist) (from UniProt P18510 26-177)” has a specific activity: EC50 value in µg/mL, inhibition of proliferation of RPMI 1788 cells (CellTiter Glo assay) [1] of 0.5 µg/mL.

“IL-1Ra/ELP fusion protein (interleukin 1 receptor antagonist - … - ELP1 [V5A2G3-90]) (from UniProt P18510 26-177)” gave a potency relative to ELP/IL-1Ra in the cell proliferation assay [1] of 4 fold and a specific activity: EC50 value in µg/mL, inhibition of proliferation of RPMI 1788 cells (CellTiter Glo assay) [1] of 2 µg/mL.

With “ternary thioredoxin-ELP-tendamistat fusion (thioredoxin/90-mer ELP/tendamistat) (from UniProt P01092 31-104)” the α-amylase inhibition activity (colorimetric α-amylase inhibition assay) (alpha-amylase) was 2 fold.

“un-fused, commercially available interleukin 1 receptor antagonist (from UniProt P18510 26-177) (ligand)” showed an EC50, inhibition of proliferation of RPMI 1788 cells (CellTiter Glo assay) [1] of 0.0016 µg/mL and an activity relative to IL-1Ra/ELP in the cell proliferation assay [1] of 300 fold.
